According to the nanobody polyreactivity screen of Harvey et al. (2022):

Assay: yeast display, Sf9 membrane polyspecificity reagent, FACS + sequencing; frameworks hold sequencing errors
In short: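 Nanobodies from a synthetic yeast display library (Saccharomyces cerevisiae BJ5465), induced 36–48 hours with galactose, were stained 1 hour at 4 °C with 10% biotinylated, detergent-solubilized Sf9 membrane reagent, enriched on streptavidin microbeads, then FACS-sorted. Anti-HA (expression) and streptavidin (reagent binding) fluorescence set low and high (top ~1%) gates. Polyreactivity labels come from the gate of origin. Genes were colony-PCR amplified, MiSeq 2 × 250 sequenced and filtered by CDR length.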

Sequence | polyreactivity (PSR sort gate)
QVQLVESGGGVDQAGGSLRLSGAASGSTFHSYTMGWYRQAPGKERELVAAITRSGGSTYYADSGKGRFTISRETAKNTVYLQMNSQKPEDTAVYYCAVPYCRNSRLVDLAYHFYYWGQGTQVTVSS | high polyreactivity
QVQLVESGGGVGQAGGSLRLSCAASGYTFPDYAMGWYRQAPGKERELFAAIRSGGGTNYADSVKGRFTISRDNAKNTVYLLMNSLQPVDTAVYYSAKEWAGGLYDYWGQGTKVTVSS | low polyreactivity
QVQLVESGGGVVQAGGSLGLSCAASGRLFGYYAMGWYRQAPGKERELGAAINYSGGSTYYADSVKGRFTISRDNAKNTVYLQMNSLKPEDTAVYYCNAVRYTLLYYWGQGTQVTVSS | high polyreactivity
QVQLVESGGGVVQAGGSLRISCAASGRTFGVYAMGWYREAPGKERELVAAINRSGTRTYYADSVKGRFSISRDNPKNTVYLPMNSLKPEDTAVYYCAASWYPGSRNYDYWGQGTQVSVSS | high polyreactivity
QVQLVESGGGVVQAGGSLRLICAASGSTFHSYVMGWYRQAPWKERELVAAITSRGGSTNYADSVKGRFTISRDNAKNTVYLQLNSQKPEDTAVYCCAADGYLGWSYCRYDYWGQGTQVTVSS | low polyreactivity
QVQLVESGGGVVQAGGSLRLSCAACGSTFRSYAMGWYRQAPGTERELVAAISSGGRTYYADSVKGRFTITRDNAKNPVYLPMNSLKPEDTAVYYCAARLYAYRWYGYAFKYEYWGHGTQVTVSS | high polyreactivity
QVQLVESGGGVVQAGGSLRLSCAASGGIFRRNAMGWYRQAPGKERELVAAITRSGASTYDADSVKGRFTISRDNAKYTVYLQMNSLKPEDTAVYYCADAQLSAEYDYWGQGTQVTVTS | low polyreactivity
QVQLVESGGGVVQAGGSLRLSCAASGGTFGKYAMGWYRQAPGNEREFVAAISKSGGSTFYADSVKGRFTISRDNAKNTVYLQMNSLKPEDTAVYYCAVRWYYRGRSLYDYWGQGTQVTVSS | high polyreactivity
QVQLVESGGGVVQAGGSLRLSCAASGRIFGGYAMGWYRQAPGKERELVAAISGSGGRTDYADSVKGRFTISRDNAKNTVYLQMNSLKPDDTAVYYCNKGYVYGHEYWGQGTQVTVSS | high polyreactivity
QVQLVESGGGVVQAGGSLRLSCAASGRIFLTNALGWYRQAPGKVREVVADISRGGSTYADSVKGRFTISRDTAKNTVYLQMTSLKPEDTAVDYCAADEYSPGDSRTRYAYWGQGTQVPVSS | low polyreactivity
QVQLVESGGGVVQAGGSLRLSCAASGRIFRYYTMGWYRQAPGKERELVAAITSSGGSTYYADSVKGRFTISRDNAKNTVYLQMNSLKPEDTAVYYCATRSYVFAWEFNYWGQGSQVTVSS | high polyreactivity
QVQLVESGGGVVQAGGSLRLSCAASGRIFYKYAMGWYRQAPGKAREFVATISSSGGSTYYADSVKGRFTISRDNAKNTAYLQMNSLKPEDTAVYYCAARYGRVTREYWGQGTQVTVSS | high polyreactivity
QVQLVESGGGVVQAGGSLRLSCAASGRTFGSNAMGWYRQAPGKERELVAGITTSGGSTNYADSVKGRFTISRDNAKNTVYLQMNSLKPEETAVYFCAVANYGIGYPHYIFDYWGQGTQVTVSS | low polyreactivity
QVQLVESGGGVVQAGGSLRLSCAASGRTFRSYAMGWYRQAPGKERELVAAISWSGGSTYYADSVKGRFTISRDNAKNTVYLQMNSLKPEDTAVYYCAATVGQRKYQLGYWGQGTQVTVSS | high polyreactivity
QVQLVESGGGVVQAGGSLRLSCAASGSIFAGIAMGWYRQAPGKERELVADITSGDSTYYADSLKGRFTISRDNAKNTVYLQMNSLTPEDTAVYYCNNQLRVPQGAFFWFHGMDYWGQGTQVTVSS | low polyreactivity
QVQLVESGGGVVQAGGSLRLSCAASGSIFTYYAMGWYRQAPGKERELVAAISYGGGSTNYADSVKGRFTISRDNAKYTVYLQMNSLKPEDTAVYYCNRVLGVNYGYWGQGTQVTVSS | high polyreactivity
QVQLVESGGGVVQAGGSLRLSCAASGSNFDRNAMGWYRQAPGKERELVAAISRSGGSTNYADSVKGRFTISRDNAKNTFYLQMNSLKPEVTAVYYCAAVRTHWFGQGWAVYWFEYWGQGTQVTVSS | low polyreactivity
QVQLVESGGGVVQAGGSLRLSCAASGSTFLPYAMGWYRQAPGKERELVAAITWRTGSTYYADSVKGRFTSSRDNAQNTVYLQMNSLKPEDTAVYYCNAKQRGKFDYWGQGTQVTVSS | low polyreactivity
QVQLVESGGGVVQAGGSLRLSCAASGSTFSAYTMGWYRQAPGKERELVAAISRSGVSTYYADSVKGRFTISRDNAKNTVYLQMNSLKPEDTAVYYCAAPYFVSYQGYDYCGQGTQVTVSS | high polyreactivity
QVQLVESGGGVVQAGGSLRLSCAASGSTFYSYAMGWYRQAPGKERELVAAISSGGGRTYYADSVKGRFTISRDNAKNTVYLQMNSLKPEDTAVYYCAASYWYRDYYYWGQGTQVTVSS | high polyreactivity
QVQLVESGGGVVQAGGSLRLSCAASGSTLVVNGLGWYRQAPGKDRELVAAISWSGGTTYYADSVKGRFTISRDNAKNTVDLQMNSLKPEDTAVYYCAADSYTEVDYWGQGTQVTVSS | low polyreactivity
QVQLVESGGGVVQAGGSLRLSGAASGITFSVNAMGWYRPAPGKEREFVAAISSSGGSTYYADSVKGRFTISRDNAKNTVYLQMNSLKPEDTAVYYCAVDYYSYYYEDDYWGQGTQVTVSS | high polyreactivity

Sequence | polyreactivity (PSR sort gate)
QVQLVESGGGVVQAGGSLRLSSAASGIIFKRYAMGWYRQAPGKEREFVAAISRSGVRTYYADSVKGRFTISRDNAKNTVFLQMNSLNPEDTAVYYCAAEFANYRDTGESVYWFYYWGQGTQVTVSS | high polyreactivity
QVQLVESGGGVVQAGGTLRLSCAASGSLFPYNVMGWYRQAPGKERELVAVITGSTGRTYYADSVKGRFTISRDNAKNTVYLQMNSLKPEDTAVYYCAKRSYWAPYDYWGQGTQVTVSS | high polyreactivity
QVQLVESGGGVVQAGRSLRISCAASGSTFRGYAMGWYRQAPGKDRELVATISGSDGTTYYADSVKGRFTISRDYAKNTVYLQMNCLNPEDTAVFYCDAGESFEMYYWGQGSQVTVSS | low polyreactivity
QVQLVESGGGVVQAGRSLRLSCAASGRLFVRNAMGWYRQAPGKDRELVAAITSVGDTYYADSVKGRFTISRDNAKNTVYLQMNSLKPVDTAVYYCAVYLWSGWGYPEYNYWGQGTQVTVSS | low polyreactivity
QVQLVESGGLLVQAGGSLRLRGAASGSTIPRNAMGWYRQAPGKERELVASITSDGGSTYYADSVKGRFTISRDNAQITVYLQMNSLNPEDTAVYYFNAYTRYGLFAYDYWGQGTQVTVSS | high polyreactivity
QVQLVESGGPIVQAGGSLRISCAASGRTYAYKTMGWSRQAPGKERELVAGINSSGGSTYYADSVKGRFTISRDNAKNTVYLQMNSLKPEDTAVYDCAADNSPRPYDSWGQGTQVTVSS | high polyreactivity
QVQLVESGGRLFQAGGSLRLSCAASGRSYRYYAMGGYTKAPGKERELFAAISSGTRTNYADSVKGRFTISRDNAKNTVYFQMNSLKPEDTAVYYCKADGYRGYYGRNKSKYDFWGQGTQVTVSS | high polyreactivity
QVQLVESGGRLLQAGGSLRLSCAASGYTIDPYDMGWYRQAPGKERELVASISWSGGDTYYADSVKGRFSISRDNAKNTVYLQMNRLKPEDPAVYYCAADPGYAANRTEWRDFDYWGQGTQVTVSS | low polyreactivity
QVQLVESGGRLVEAGGSLSLSWAASGRIFPKYPMGWYRQAPGKERELVAAISRRGSSTYYADSVQGRFTISRDNAKNTVYLQMNSLTPEDTAVYYCATDARDGHDYWGQGSQVTVSS | high polyreactivity
QVQLVESGGRLVHAGGSLRISCAASGSILTRNAMGWYRPAPGKERELVAASTKRGGTTYYADSVKGRFTISRDNAKNTVYLQMNSLKQEDNAVYYCAARNGGRFSFEFNYWGQGTQVTVSS | high polyreactivity
QVQLVESGGRLVKAGGSLRLSCAASGRTFSSYAMGWYRHAPGKERELVAAISSGGSTYYADSVKGRFTISRDNAKNTVYILMNSQIPEDTAVYYCNRRLYYKIGRGFSYYWGQGTQVTVSS | high polyreactivity
QVQLVESGGRLVQAGASLRLSCAASGFTLHWYAMGWYRQAPGKERELVASITNTGRTYYADSVKGRFTISRDNAKNTVYLQINILKPEDTAVYYCAAGTQYSHYYVADYCRDYWGQGTQVTVSS | high polyreactivity
QVQLVESGGRLVQAGGILRLSCAASGIIFKDYAMGWYRQATGKERELVAAISWSGSSTYYADSVKGRFTISRDNAKNTVYLQMNSLKPEDTAVYYCNAFPGDYRYDYWGQGTQVTVSS | high polyreactivity
QVQLVESGGRLVQAGGRLRLSCDASGYIISSYVMGWYRQAHGKDKELVAAINRRGGSTYYADSVKGRFTISRDNAKNTVYLQMNSLKPEDTAVYYCAADGLSGYGSGGYYGMGYWGQGTQVTVSS | high polyreactivity
QVQLVESGGRLVQAGGSIRLSCAASGGIFTAYAMGCYRQAPGKEREFVAGIDRSGGRTYYADSVKGRFTISRDNAKNNVYLQMNSLKPEDTAVYYCYARGYVYQNQLYYYWGQGSQVTVSS | high polyreactivity
QVQLVESGGRLVQAGGSLRLRGAASGNTNIPNAMGWYRQAPGKERELLAAIRASGGSTYYADSVKGRFTISRDNAKNTVYFQLNSLKTEDTSVYYCNADIWYKTYDYWGQGTQVTVSS | low polyreactivity
QVQLVESGGRLVQAGGSLRLSCAASGFIFCLNAMGWYRHAQGKERELVATIDNSGGSTYADSVKGRFTISRDNAKNTVYLQMNSLKPEVTAVYYCARDDGLLSYGYWGQGTQVTVSS | low polyreactivity
QVQLVESGGRLVQAGGSLRLSCAASGFIFVDYAMGWYRQAPGKERELVAAITYDGGSTYYADSVKGRFTISRDNAKNTVYLPMNSLKPEDTAVYYCATQGLWIFVVVEMDYWGQGTQVTVSS | low polyreactivity
QVQLVESGGRLVQAGGSLRLSCAASGFSFRGNAMGWYRQAPGKERELVATISRGGNTNYADSVKGRFTISRDNAKNTVYLQMNSLKPEDTAVYYCAAVSYIRSKVAYNYWGQGTQVTVSS | low polyreactivity
QVQLVESGGRLVQAGGSLRLSCAASGFTFDSYDMGWYRQEPGKERELVAAITWSGGSTYYADSVKGRFTISRDNAKNTVYLQMNSLKPEDTAVYYCNADTGTYWVPWYHDGYDYWGQGTQVTVSS | low polyreactivity
QVQLVESGGRLVQAGGSLRLSCAASGFTFGENAMGWYRQAPGKERELVAAITSGDGTSYADSVKGRFTISRDNAKNTVYLQMNSLKPEDTAVYYCAADGGDELYYSTYDYWGQGTQVTVSS | low polyreactivity
